Assay results taken from the DeepSol protein solubility set.

Assay: soluble on expression in E. coli; label from the status in PepcDB or PDB records
With “GPMSAQDVENAVEAALDPSVGPIIKQQATDFIGSLRSSSTGWKICHEIFSEKTKYKPSTRLICLQTLSEKVREWNNESNLLELQMIRDSVWSYIKELSFLDEPAYISNAVQHLLTLLFLQLYPSNWNDFFASLQGVIAASSQSEFSNFYLKVLLSIGDEIADSLVLKTDVQIQKDNLVKDAIRANDMSDIVSFVYEMMLAYSNAKNYGTVGLCLQVYAQWVSWININLIVNEPCMNLLYSFLQIEELRCAACETMTEIVNKKMKPLEKLNLLNILNLNLFFSKSQEQSTDPNFDEHVAKLINAQGVELVAIKSDPSELSPELKENCSFQLYNLFPYLIRYLSDDYDETSTAVFPFLSDLLVSLRKESSSKELSASLKEFLKSLLEAIIKKMKYDESQEWDDDPDSEEEAEFQEMRKKLKIFQDTINSIDSSLFSSYMYSAITSSLSTAATLSPENSWQLIEFALYETYIFGEGLRGPDAFFNEVDKSPTVLSQILALVTTSQVCRHPHPLVQLLYMEILVRYASFFDYESAAIPALIEYFVGPRGIHNTNERVRPRAWYLFYRFVKSIKKQVVNYTESSLAMLGDLLNISVSPVTDMDAPVPTLNSSIRNSDFNSQLYLFETVGVLISSGNLTPEEQALYCDSLINALIGKANAALSSDLSALENIISVYCSLMAIGNFAKGFPARGSEEVAWLASFNKASDEIFLILDRMGFNEDIRGAVRFTSGRIINVVGPDMLPKVPQLISILLNSIDMNELVDVLSFISQLIHIYKDNMMEITNRMLPTLLMRIFSSLSAAPQGTDDAVKQNDLRKSYISFILQLLNKGFGSILFTEENQVYFDPLINSILHFANLVGEPATQKSSIALVSKMVSLWGGKDGIAGFENFTLSLTPLCFEMPVNPNFNTRDGQSLVVLGELAGLQKIILEKLGDIYKSYLVTVYFPTVNFPDVMASEYLQALSNLDSRSFKQFFQKFIQALKSGNV” the “soluble on expression in E. coli” value was “soluble”. In the case of GPPPPPGPPPPPGPPPPPGL, the “soluble on expression in E. coli” value is reported as “soluble”. For “GQDTGEDNLAIKGITTLNDLTMVNVSGPGMKGMVGMASRVFGAMSSAGVSIVLITQSSSEYSISFCIEADDKLKAQQVLADAFELELKDGLLEPVDFIDDVSIVTLVGDGMRTSRGVASRFFSSLAEVNVNIVAIAQGSSERAISAVIPEDKISEAIKACHENLFNSKYF”, the “soluble on expression in E. coli” value was “not soluble”. For “GQSGPLPKPSLQALPSSLVPLEKPVTLRCQGPPGVDLYRLEKLSSSRYQDQAVLFIPAMKRSLAGRYRCSYQNGSLWSLPSDQLELVATGVFAKPSLSAQPGPAVSSGGDVTLQCQTRYGFDQFALYKEGDPAPYKNPERWYRASFPIITVTAAHSGTYRCYSFSSRDPYLWSAPSDPLELVVT”, the “soluble on expression in E. coli” value was “soluble”. With “GQYDYIKVAVSLMGSAYYVDFAKELSKYALAQGLTFPYDVDERILALQKYDLTQNITKINNRPLLLWHGKKDDVVPFAYSEKLYQTLVEESLADNVEFIIDDNAKHKVSVEGMLQGVSFFEKFL” the “soluble on expression in E. coli” value was “not soluble”. For “GRDGNNLNNPVLLLDTFDFGPREDNWFFYPGGNIGLYCPYSSKGAPEEDSAMVFVSNEVGEHSITTRDLSVNENTIIQFEINVGCSTDSSSADPVRLEFSRDFGATWHLLLPLCYHSSSLVSSLCSTEHHPSSTYYAGTTQGWRREVVHFGKLHLAGSVRFRWYQGFYPAGSQPVTWAIDNVYIGPQCEEMCYGHGSCINGTKCICDPGYSGPTCKISTKNPDFLKDDFEGQLESDRFLLMSGGKPSRKCGILSSGNNLFFNEDGLRMLVTRDLDLSHARFVQFFMRLGCGKGVPDPRSQPVLLQYSLNGGLSWSLLQEFLFSNSSNVGRYIALEMPLKARSGSTRLRWWQPSENGHFYSPWVIDQILIGGNISGNTVLEDDFSTLDSRKWLLHPGGTKMPVCGSTGDALVFIEKASTRYVVTTDIAVNEDSFLQIDFAASCSVTDSCYAIELEYSVDLGLSWHPLVRDCLPTNVECSRYHLQRILVSDTFNKWTRITLPLPSYTRSQATRFRWHQPAPFDKQQTWAIDNVYIGDGCLDMCSGHGRCVQGSCVCDEQWGGLYCDEPETSLPTQLKDNFNRAPSNQNWLTVSGGKLSTVCGAVASGLALHFSGGCSRLLVTVDLNLTNAEFIQFYFMYGCLITPSNRNQGVLLEYSVNGGITWNLLMEIFYDQYSKPGFVNILLPPDAKEIATRFRWWQPRHDGLDQNDWAIDNVLISRLENLYFQ”, the “soluble on expression in E. coli” value was “soluble”. For “GRWILKNDVKNRSVYIKGFPTDATLDDIKEWLEDKGQVLNIQMRRTLHKAFKGSIFVVFDSIESAKKFVETPGQKYKETDLLILFKDDYFAKKNEERKQNKVE”, the “soluble on expression in E. coli” value was “soluble”. In the case of “GSDPGPEAARLRFRCFHYEEATGPQEALAQLRELCRQWLRPEVRSKEQMLELLVLEQFLGALPPEIQARVQGQRPGSPEEAAALVDGLRREPGG”, the “soluble on expression in E. coli” value is reported as “soluble”. For “GSGEQHFAEGHEQAFTGKESAAMKDVVSGHATHEAGKSTTAQPTETRSTSESSHSLRDSIMAQVRDAVTTREPNGNGRISIRLNPVELGELTINVRVADQQVKVDVVAANGQVRDILLNNLDNLKENFSRQNLTMTGFDVSTGT”, the “soluble on expression in E. coli” value was “not soluble”. In the case of “GSGTGAGEGHEGYVTRKHEWDSTTKKASNRSWDKVYMAAKAGRISFYKDQKGYKSNPELTFRGEPSYDLQNAAIEIASDYTKKKHVLRVKLANGALFLLQAHDDTEMSQWVTSLKAQSDSTA”, the “soluble on expression in E. coli” value is reported as “soluble”. For “GSHEATVEYLADLVKEKKHLTLFPHMFSNVERLLDDEIGRVRVALFQTEFPRVELPEPAG”, the “soluble on expression in E. coli” value was “soluble”. For “GSHMASMTGGQQMGRGSGSHMASMTGGQQMGRGSRVGEQSQAGDPGLVSAYGPGLEGGTTGVSSEFIVNTLNAGSGALSVTIDGPSKVQLDCRECPEGHVVTYTPMAPGNYLIAIKYGGPQHIVGSPFKAKVTGPRLS”, the “soluble on expression in E. coli” value was “soluble”. With “GSHMDASKIDQPDLAEVANASLDKKQVIGRISIPSVSLELPVLKSSTEKNLLSGAATVKENQVMGKGNYALAGHNMSKKGVLFSDIASLKKGDKIYLYDNENEYEYAVTGVSEVTPDKWEVVEDHGKDEITLITCVSVKDNSKRYVVAGDLVGTKAKK” the “soluble on expression in E. coli” value was “soluble”. In the case of “GSHMEEKLAVSLQEALQEGDTRALREVLEEIHPQDLLALWDELKGEHRYVVLTLLPKAKAAEVLSHLSPEEQAEYLKTLPPWRLREILEELSLDDLADALQAVRKEDPAYFQRLKDLLDPRTRAEVEALARYEEDEAGGLMTPEYVAVREGMTVEEVLRFLRRAAPDAETIYYIYVVDEKGRLKGVLSLRDLIVADPRTRVAEIMNPKVVYVRTDTDQEEVARLMADYDFTVLPVVDEEGRLVGIVTVDDVLDVLEAEATEDIHKLGAVDVPDLVYSE”, the “soluble on expression in E. coli” value is reported as “soluble”. With “GSHMESGYAQNGDLEDAELDDYSFSCYSQLEVNGSQHSLTCAFEDPDVNTTNLEFEICGALVEVKCLNFRKLQEIYFIETKKFLLIGKSNICVKVGEKSLTCKKIDLTTIVKPEAPFDLSVVYREGANDFVVTFNTSHLQKKYVKVLMHDVAYRQEKDENKWTHVNLSSTKLTLLQRKLQPAAMYEIKVRSIPDHYFKGFWSEWSPSYYFRTPEINNSSGEMD” the “soluble on expression in E. coli” value was “soluble”. For “GSHMIKVLSPAKINLGLWVLGRLPSGYHEILTLYQEIPFYDEIYIREGVLRVETNIGIPQEENLVYKGLREFERITGIEINYSIFIQKNIPPGAGLGGGSSNLAVVLKKVNELLGSPLSEEELRELVGSISADAPFFLLGKSAIGRGKGEVLEPVETEISGKITLVIPQVSSSTGRVYSSLREEHFVTPEYAEEKIQRIISGEVEEIENVLGDIARELYPEINEVYRFVEYLGFKPFVSGSGSTVYFFGGASEELKKAAKMRGWKVVELEL”, the “soluble on expression in E. coli” value was “soluble”. In the case of “GSHMKNSVSVDLPGSMKVLVSKSSNADGKYDLIATVDALELSGTSDKNNGSGVLEGVKADASKVKLTISDDLGQTTLEVFKSDGSTLVSKKVTRADGTRLEYTGIKSDGSGKAKEVLKGYVLEGTLTAEKTTLVVKEGTVTLSKNISKSGEVSVELNDTDSSAATKKTAAWNSGTSTLTITVNSKKTKDLVFTSSNTITVQQYDSNGTSLEGSAVEITKLDEIKNALK”, the “soluble on expression in E. coli” value is reported as “soluble”. In the case of “GSHMLEDPQRRIRRPFSVAEVEALVQAVEKLGTGRWRDVKLCAFEDADHRTYVDLKDKWKTLVHTAKISPQQRRGEPVPQELLNRVLNAHGYWTQQQMQQLQQNV”, the “soluble on expression in E. coli” value is reported as “soluble”.
